The record followed here is the DeepSol protein solubility set.

A short description of the data set: soluble on expression in E. coli; label from the status in PepcDB or PDB records.
As to “MTLMNTENEPTGMLTIRVSAMPKDANSAYDIFGGWVMAQMDMAAGIRSAERARGRTVTAAVREMAFARPVKIGDTLCVYTDITRVGRTSITLRVEAWAKRYLSDKRDLVTHAEFIMVALDADGKPTPAPQEDLEHHHHHH”, the “soluble on expression in E. coli” value is recorded as “not soluble”.
The same measure for “MILRRPSQADKEAILDMMGEFEREKSVHDGGFWNADNFIYEEWLEENLQSEAGLNIPENWVPAIQLVSFNESGHALGFLHLRLRLNGRLLEKGGHIGYSIRPSERGKGYAKESLRQGLQVAKEKNIQRALVTCSTENPASRAVILANGGQLEDICNETERYWIDLE”: “not soluble”.
In the case of “MEAVERAFRALDEGIADYLARKGIRPSCGPGCFACCYGWVTASRLEAQALLPHLTEAQKARVLEEGPRRLALLAREKDDPGFPRRFFLSRSPCPLLEAGLCGVYAHRPLACRGVLTDEDPAYCDPENPHPAPKPHHGPGHFLRVPHRMARRRMEELWEEERAQTGFLVLGELSGLLYLLLTGLPEDREGVEARLEALGVLGGRFGFQVVAAALEHHHHHH”, the “soluble on expression in E. coli” value is given as “not soluble”.
For “MSSVMSHTGGKEGTYPGTRASATMIGDDETNWGTKSLAILDMPFTAVMDTLLLPWDVFRKDSSVRSRVEKSEANAQATNAVIPPARMPDNLEHHHHHH”, the “soluble on expression in E. coli” value is “not soluble”.
Next, “MGSDKIHHHHHHMASLDVFHQDAFTTIQLTTAVDKYPFQPTGLGDLNIFEPDPIRTTALAVEQRQGKLVVVPFSERGQEGTQRTTEQREARYFKVPRIMHADTLYANEIQDIRAFGTESELMQVQAEVARRLNGPTGLTSNIEYTWEYHRLAAVQGMLLDADGTVKYNWFDEFGITPPSLVPFNLSAQTPNSLRPIVNGIRRTMARKAQGAFLPTTKIFALCGDLFYDELTNHTDVIRTYLNWSAASELRDDSQGAAFEAFPFAGVTWSNYRGSDDNTTLKIPDDEVHFFPVGAPGVFRVAYAPGESFEWVNTPGKPIYVIPIYDRDRNSFWKMEAYSYPLHICTRPEVLQKGHAGA”: “not soluble”; “MTQVPPSASPADLLAVLERIATALERQGAPAVPANSLDGADAFVWHAAESWLEPVCRVNRVDIALLQGIERQRQTLYDNTLRFAHGLPANNALLWGARGTGKSSLVKAVHASVNQALTAKGAAPVALVEIHREDIPTLPRLLRILAASGRPCLLFCDDLSFDGNDSSYKSLKAVLEGGIEGRPDTVIFYATSNRRHLLAREMVENEQSTALHAGEAVEEKVSLSDRFGLWLGFHNVDQPTYFDIVDGYARAYGLDIETEDLHREAREWSMARGSRSGRTAWQFIQDLAGRLGKTLELEHHHHHH”: “soluble”.
The same measure for “MMIAAAIFTTCVDGNKFFYHREIKVLRHLKRFNKPALKSIKSEDGDVIDCVPITNQPAFDHHLLKNHTIQMRPSFYPVSDSTYTKREAKAVTQVWHKAGECPKNTVPIRRTKKEDLLRPKSIRSFGRKSHQSIPRTTTFDPTLGHQYALMGVRNGKFYGTEVAINLWKPYVQIPKEFSLAQTWVVSGNGSSLNTIEAGWQVYPELYDDNNPRFFVYWTRDGYRKTGCYNLLCSGFVQTSNRYTVGGSITTMSRYRGTQYDLSVLIWKDQKTGNWWLRVNEKDVIGYWPGSLFNSLGREATRVEWGGEIINSKTGGRHTTTDMGSGHFADEGFKKASYFRNLKIVDGTNTLREPQGLYFFADKHNCYNVKTGNGGTSWGAHFFYGGPGRNVKCP”: “soluble”.
The same measure for “MVLEHCRDAIESHGVETDIISLRGMKIESCRACLSCAKKHRCRIDDGLNDIIDRIRDSEGFIVATPVYFGTARGDLMAALQRIGMVSRASDGFLSWKVGGPIAVARRGGHTATIQELLMFYFINDMIVPGSTYWNMVFGWAPGEVEDDSEGIETIRRFGENVAELIKRINGGSLEHHHHHH”: “not soluble”.
Consider “MGHHHHHHSHMKKEHVLHCQFSAWYPFFRGVTIKSVILPLPQNVKDYLLDDGTLVVSGRDDPPTHSQPDSDDEAEEIQWSDDENTATLTAPEFPEFATKVQEPINSLGGSVFPKLNWSAPRDAYWIAMNSSLKCKTLSDIFLLFKSSDFITRDFTQPFIHCTDDSPDPCIEYELVLRKWCELIPGAEFRCFVKENKLIGISQRDYTQYYDHISKQKEEIRRCIQDFFKKHIQYKFLDEDFVFDIYRDSRGKVWLIDFNPFGEVTDSLLFTWEELISENNLNGDFSEVDAQEQDSPAFRCTNSEVTVQPSPYLSYRLPKDFVDLSTGRDAHKLIDFLKLKRNQQEDD”, for which the “soluble on expression in E. coli” value is “not soluble”.
Turning to “MAEEIQMYDDAASVAFIRNFIPQELKEKMTDDDIVYIVDLIYDFYESRGFMDMAEDSEETVEVDEDELVEYVVKNAARDEVGHFSADEIRFVVQGELEYCESINLFEED”, the “soluble on expression in E. coli” value was “not soluble”.
Next, “GMSTSPADTARYNRFVADLFGMMAYGELSAFERFSADARYSPTLHDRAVLGRIAVVEFRHYELVSARLEAMGIDAEDAMLPFQAAVDYFHSRTRPADWYESLMKAYVIDTVSADFYRAISRYVDAGTRDVIEQIQASDETTEVLRERLRSALADDPRLASRLALWGRRLLGEALTQAQRVSYEHAFLGSLIGGEDSAAAKELVSGLIAGLAEKHSKRMTQLGLTG”: “soluble”; “MVCDEKRYAIREVAEITGVKPVTLRAWQRRYNLVQPDRTEKGHRLFTDQDIEMIRQIQSWLAKGVAIGKVGALLQSGVSESESIPQPVGQLEECETLLTALAALQRSKAEQIIATVLKEYPLSVMQAQFVQPVTEALERVKGPLRSLQIGLFRTLMLSKLAFILDAENKAAVKGKCLCISLDEAGSLNAWLWALAWAENGHQVTLLEAVDDIRGLLENPGLAQYQILALHAHRALPAAQQSALASLQQQFGEQCVLSNVLQQLQS”: “not soluble”; “MELAKFIGLTTFQDILEDCFALLVYERPEESNVGYFLEETQREVVADTVNAAILSTKPKGKNQSHSHLETLLRQLTACCLELRSLNDGQGEAFSLNRLLRTNNWKRTKKTT”: “soluble”.
Take “MSTNEITKRLPNLTSRRALLLYSLPVLVAIGVSHSLKESSLTKTIALNLPESQVVERILDATTAEVVTPPNFEYQIQAGDNLSTIFSQLGFGYSSLMKVMETDLNYLALDTLKPGNTLRFWRNDATGELEKMELQFSIADKVVYQLNSDGGYDFTDISIPGVWRQEPLVGVIQGSFSSSANRLGLSSAEISQVVSLLKEQVNFGRDLRAGDRFEVVRRSQTINGVSTGKNEIEAIKIYNRGREITAYLHTDGQFYNAKGESLQRAFQRYPVSRSWRISSGFNPNRLHPVTGRVAP”: the “soluble on expression in E. coli” value is given as “not soluble”.
The same measure for “MVEVVRNKRPPRGLVPRLRRALAALMEELGVGDKGVTVILTGDRRLRALKREWWGEAGKAYRKSVGPFGPGLPRPRAKCQPLIISTWRPHF”: “soluble”; for “MSLRILLVDDVQLDRMQLAIRLKQLGHIVKAVGSGIEALNTYESFDPELVLLDISMPEMNGFEVSLHVRETFPDWIPIIFLSSHEEPEMIAKAIDAGGDDYLIKPVDKLVLNSKLIAMQRIAHMRRELKQATAQLEQVNQLLTQQANEDGLTKLFNRRYIDQKLDSMVAWHGRHHMPMAMILLDVDFFKPFNDNYGHIEGDRCLQAIANQLKATFCRSGEYVGRYGGEEFVVLLSSTDAQTAEREAERIQEAMYFLDYQHEFSSVANRVTVSQGVFVFQPTGKENQADLYATADRALYTSKSLGRNTYTMVNASEGHHHHHH”: “soluble”; for “MSNTEERCDLSSSRDCPERHEHLLQRVTARAAEIGGGITVSRLMPSRQRRMIGAWCFLDHAGPAEFEPGGGLAVGPHPHIGLQTFTWMIQGEALHRDSLGNVQVIRPGQVNLMTAGHGIAHTEESLPDERHAHAAQLWIALPYEQRDIAPAFDHHPDLPRWQEQGVTFTLLAGALAGRQAPCRLYSPLLGADLACHDASTLQLTLDPHFEYGLLPLEGGLEVGGEHFAVNELAYLGDGRDGLQLQLDPGARVLLLGGAPFGAEIFMWWNFVGHSKGEIARAQKAWEEGDARFGRLDALEGPRLSAPPIPWKIDAE”: “not soluble”.
The same measure for “MSGYDRALSIFSPDGHIFQVEYALEAVKRGTCAVGVKGKNCVVLGCERRSTLKLQDTRITPSKVSKIDSHVVLSFSGLNADSRILIEKARVEAQSHRLTLEDPVTVEYLTRYVAGVQQRYTQSGGVRPFGVSTLIAGFDPRDDEPKLYQTEPSGIYSSWSAQTIGRNSKTVREFLEKNYDRKEPPATVEECVKLTVRSLLEVVQTGAKNIEITVVKPDSDIVALSSEEINQYVTQIEQEKQEQQEQDKKKKSNH”: “soluble”; for “MSKSICKSSMRAAVVRRFGAPDVIEAVESDMPRLEKNQVLVRNYAAGVNPVDTYIRAGQYGKLPNLPYVPGKDGAGFVELVGESVKNVKVGDRVWYGSEADSTAEYVAVNRPFELPEGVSFEEGASLGVPYLTAYRALFHLAGAKTGDVILVHGASGGVGSALMQLAAWRNIEAVGTAGSADGIRFVKSLGARNVYNHSDKQYVSKMKNDYPGGFNHIFEMAAHTNLNTDLGLLAPRGRVAVIGNRAETTINARQLMVTEGAVYGVALGMSSEAELLDFGINIVSFLKETEFRPLINKLYRLEQLGLAHEEIMNNKGAKGNLVVQIEH”: “not soluble”; for “MGSDKIHHHHHHMRNELPPENAYRILESGPIVLVSTRGADGRANLMTMGFHMMMQHEPPLVGAIIGPWDYSHQALSETGECVLAVPTVDLAETVVDIGNCSGDALDKFGHFGLTPVPAQTVDAPLVRQCWANLECRVVDDGWARRYNLWVLEVQRIWIDTARKETRLIHHQGDGRFSVDGDTLDLGERMTKWRHLMG”: “not soluble”.
In the case of “MTPYAFTDPRKSELYVVEGDSAGGSAKSGRDSMFQAILPLRGKIINVEKARIDRVLKNTEVQAIITALGTGIHDEFDIGKLRYHKIVLMADADVDGQHISTLLLTLLFRFMRPLIENGHVFLAQPPLYKLKWQRSDPEFAYSDRERDGLLEAGLKAGKKINKEDGIQRYKGLGEMDAKELWETTMDPSVRVLRQVTLDDAAAADELFSILMGEDVDARRSFITRNAKDVRFLDVKLAAALEHHHHHH”, the “soluble on expression in E. coli” value is on record as “soluble”.
The same measure for “MKNDRTLQAIGRQLKAMGCERFDIGVRDATTGQMMNREWSAAEVLQNTPWLKRMNAQGNDVYIRPAEQERHGLVLVDDLSEFDLDDMKAEGREPALVVETSPKNYQAWVKVADAAGGELRGQIARTLASEYDADPASADSRHYGRLAGFTNRKDKHTTRAGYQPWVLLRESKGKTATAGPALVQQAGQQIEQAQRQQEKARRLASLELPERQLSRHRRTALDEYRSEMAGLVKRFGDDLSKCDFIAAQKLASRGRSAEEIGKAMAEASPALAERKPGHEADYIERTVSKVMGLPSVQLARAELARAPAPRQRGMDRGGPDFSM”: “soluble”.
In the case of “MTQKEISIIHPRPSSIVAALYTLRDLNVDVAILHGPPGCSFKHARLLEEDGIHVVTTGLDENGFVFGGHDKLVQVINKSIELFNPKILGVVGTCASMIIGEEMHEAVLEANPDIPVIEVEVHAGYHNNTKGVIFALESALDAGIIDHKEFERQEYLEHHHHHH”, the “soluble on expression in E. coli” value was “not soluble”.
Next, “MLESNENRIQIMSTIAKIYRAMSRELNRRLGELNLSYLDFLVLRATSDGPKTMAYLANRYFVTQSAITASVDKLEEMGLVVRVRDREDARKILIEITEKGLETFNKGIEIYKKLANEVTGDLSEDEVILVLDKISKILKRIEEISQ”: “soluble”; “MAHHHHHHMAVSQLLEMKLITRPRANLTQENVNAMVEFDYELAKKAQIAVDNNLPVNFFDLEYIDKPEYLAQLLEEKNILEKTREEVLKREKGNYKTPEILKNYKRVEVPREWRQELEIDEKILKAQPGLKENIELQKIMHNYVQSKFKSKVPGQPQKKHVKG”: “soluble”.
